Drawing on article PMC4735112, “The Functional Unit of Neisseria meningitidis 3-Deoxy-ᴅ-Arabino-Heptulosonate 7-Phosphate Synthase Is Dimeric” (PLoS ONE, 2016), this text covers stoichiometry N for 1 substance.

Test [1] deals with Neisseria meningitidis 3-deoxy-D-arabino-heptulosonate 7-phosphate synthase, R126S variant (N. meningitidis) (UniProt Q9K169). Nature of the test: SEC. (SEC sorts molecules by how far they enter the pores of the column.)
For test [2] the target is unchanged. Nature of the test: crystal structure.
For test [3] the target is unchanged. Nature of the test: AUC; sedimentation velocity, 20°C, 10 mM BTP pH 7.3, 100 mM KCl, 200 μM PEP; 0.2, 0.4 and 1.2 mg/mL; continuous size distribution model (SEDFIT).
Test [4] shares this target. Nature of the test: SAXS; SEC-coupled small angle X-ray scattering, 25°C, 10 mM BTP pH 7.5, 100 mM KCl, 200 μM PEP; initial 7 mg/mL (wild type) and 12 mg/mL (R126S) prior to SEC; CRYSOL fits to tetramer and tight dimer of the crystal structure.

Regarding “Neisseria meningitidis 3-deoxy-D-arabino-heptulosonate 7-phosphate synthase, R126S variant (from UniProt Q9K169 1-351) (enzyme)”, the stoichiometry N was 2 in test [1], 4 in test [2], 2 in test [3] and 2 in test [4].

Usually stoichiometry N stands for a count of units in the complex or per binding partner.
